Source: patent US20100092481A1 (INSTITUTE FOR RESEARCH IN BIOMEDICINE, published 2010)

Key:
[1] = target: T1, hCMV UL128, UL130 and UL131A co-expressed in HEK293T cells (human cytomegalovirus, UniProt P16837 1-171; P16772 1-214); experiment: cell-based or functional assay
[2] = target: T1, hCMV UL128, UL130 and UL131A …; experiment: cell-based or functional assay; remark: listed apart in the source
[3] = target: T2, hCMV gH, gL, UL128, UL130 and UL131A co-expressed in HEK293T cells (human cytomegalovirus, UniProt P12824 24-743; P16832 31-278; P16837 1-171; P16772 1-214); experiment: cell cross-competition, 20x excess; competitor 6G4-biotin
T2 construct: whole, on cells; also called gH + gL + UL128 + UL130 + UL131A; gH/gL/UL128-130 complex

[4] = target: T2, hCMV gH, gL, UL128, UL130 and UL131A …; experiment: cell cross-competition, 20x excess; competitor 9I6-biotin
[5] = target: T2, hCMV gH, gL, UL128, UL130 and UL131A …; experiment: cell cross-competition, 20x excess; competitor 1F11-biotin
[6] = target: T2, hCMV gH, gL, UL128, UL130 and UL131A …; experiment: cell cross-competition, 20x excess; competitor 2C12-biotin
[7] = target: T2, hCMV gH, gL, UL128, UL130 and UL131A …; experiment: cell cross-competition, 20x excess; competitor 8C15-biotin
[8] = target: T2, hCMV gH, gL, UL128, UL130 and UL131A …; experiment: cell cross-competition, 20x excess; competitor 8I21-biotin
[9] = target: T2, hCMV gH, gL, UL128, UL130 and UL131A …; experiment: cell cross-competition, 20x excess; competitor 8J16-biotin
[10] = target: T2, hCMV gH, gL, UL128, UL130 and UL131A …; experiment: cell cross-competition, 20x excess; competitor 4I22-biotin

T1 sequence (P16837 whole entry, chain 1 of 2): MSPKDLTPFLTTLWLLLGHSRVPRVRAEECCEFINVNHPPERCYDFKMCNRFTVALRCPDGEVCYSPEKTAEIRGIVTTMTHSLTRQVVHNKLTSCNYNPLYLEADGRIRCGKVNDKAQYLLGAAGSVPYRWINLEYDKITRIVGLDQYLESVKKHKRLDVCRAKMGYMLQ
T1 sequence (P16772 whole entry, chain 2 of 2): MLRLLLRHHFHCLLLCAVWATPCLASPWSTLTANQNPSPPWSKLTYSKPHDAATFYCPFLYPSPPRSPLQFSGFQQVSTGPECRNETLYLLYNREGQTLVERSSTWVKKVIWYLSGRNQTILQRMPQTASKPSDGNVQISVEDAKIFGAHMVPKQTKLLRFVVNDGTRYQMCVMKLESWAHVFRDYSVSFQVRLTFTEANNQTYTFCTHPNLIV

Row | Binder | 50% Neutralization ARPE (hCMV VR1814) [1] | 50% Neutralization MRC-9 (hCMV VR1814) [1] | 90% Neutralization ARPE (hCMV VR1814) [2] | 90% Neutralization MRC-9 (hCMV VR1814) [2] | Inhibition of binding (%) [3] | Inhibition of binding (%) [4] | Inhibition of binding (%) [5] | Inhibition of binding (%) [6] | Inhibition of binding (%) [7] | Inhibition of binding (%) [8] | Inhibition of binding (%) [9] | Inhibition of binding (%) [10]
1 | 7I13 (antibody, V domains shown, human IgG mAb) VH: QVQLVESGGGVVQPGRSLRLSCAASGFTFSNYGMHWVRQGPGKGLEWVAVISYDASSKYYTDSVQGRFTISRDNSKNTLFLQMNSLRGEDTAVYYCAKALRYLDWFLSDPFDYWGQGTLVTVSS VL: EIVLTQSPGTLSLSPGERATLSCRASQSVSSDFLAWYQQKPGQAPRLLIYGASSRATGIPDRFSGSGSGTDFTLTISRLEPEDFAVYYCQQYAASPPFGQGTRLEIK | < 0.01 µg/mL | > 2 µg/mL | 0.008 µg/mL | > 10 µg/mL | 0% | 0% | 0% | 0% | 0% | 0% | 0% | 
2 | 7B13 (antibody, V domains shown, human IgG mAb) VH: QVQLVESGGGVVQPGGSLRLSCAASGFSFSNYGMHWVRQAPGKGLEWVALIPSDGNYQYYTDSVKGRFTVSRDNSRNTLYLQMKSLRAEDTARYHCAHLGGGLFDFWGQGTLVTVSS VL: QSALNQPRSVSGSPGQSVSISCTGSSSDVGGYEFVSWYQHHPGKAPKLIIYDVDKRPSGVPDRFSGSRSGDTASLTISGLQAEDEADYYCYSSADTWVFGGGTKLTVL | < 0.001 µg/mL | > 2 µg/mL | 0.003 µg/mL | > 10 µg/mL | 100% | 100% |  | 100% | 100% | 0% | 100% | 
3 | 8C15 (antibody, V domains shown, human IgG mAb; also called 8C15-biotin) VH: QVQLQESGPGLVKPSETLSLTCTVSGGSIRSYYWSWIRQPPGKGLEWIGHIYYSGNTNYSPSLQSRVTISLDTPKNQFSLRLSSVTAADTAVYYCARHDVIVVRGVFDVWGQGTVVTVSS VL: QSALTQPASVSGSPGQSITISCTGTSSDIGTYNLVSWYQQHPGKAPKVLIYDGSKRPSGVSSRFSASKSGNTASLTISGLQAEDETDYYCCSYAGTSDFFVVFGGGTKLTVL | < 0.001 µg/mL | > 2 µg/mL | 0.0025 µg/mL | > 10 µg/mL | 100% | 100% |  | 100% | 100% | 0% | 100% | 0%
